Data on three molecules can be found in US20250215058A1 (CHILDREN S MEDICAL CENTER, published 2025).

The labels stand for the following.
B1: HLA-C (full length, FLAG-tagged, expressed in HEK293 cells) (receptor)
MHC heavy: CSHSMRYFDTAVSRPGRGEPRFISVGYVDDTQFVRFDSDAASPRGEPRAPWVEQEGPEYWDRETQKYKRQAQADRVSLRNLRGYYNQSEDGSHTLQRMSGCDLGPDGRLLRGYDQSAYDGKDYIALNEDLRSWTAADTAAQITQRKLEAARAAEQLRAYLEGTCVEWLRRYLENGKETLQRAEPPKTHVTHHPLSDHEATLRCWALGFYPAEITLTWQRDGEDQTQDTELVETRPAGDGTFQKWAAVVVPSGQEQRYTCHMQHEGLQEPLTLSWEPSSQPTIPIMGIVAGLAVLVVLAVLGAVVTAMMCRRKSSGGKGGSCSQAACSNSAQGSDESLITCKAEFGSGSGS
notes: also called HLA-C alone; not shown: triple-FLAG tag
B2: HLA-B (full length, FLAG-tagged, expressed in HEK293 cells) (receptor)
MHC heavy: GSHSMRYFYTSVSRPGRGEPRFISVGYVDDTQFVRFDSDAASPREEPRAPWIEQEGPEYWDRNTQIYKAQAQTDRESLRNLRGYYNQSEAGSHTLQSMYGCDVGPDGRLLRGHDQYAYDGKDYIALNEDLRSWTAADTAAQITQRKWEAAREAEQRRAYLEGECVEWLRRYLENGKDKLERADPPKTHVTHHPISDHEATLRCWALGFYPAEITLTWQRDGEDQTQDTELVETRPAGDRTFQKWAAVVVPSGEEQRYTCHVQHEGLPKPLTLRWEPSSQSTVPIVGIVAGLAVLAVVVIGAVVAAVMCRRKSSGGKGGSYSQAACSDSAQGSDVSLTAEFGSGSGS
notes: also called HLA-B alone; not shown: triple-FLAG tag
B3: HLA-A (full length, 3× FLAG tagged, expressed in HEK293 cells) (receptor)
MHC heavy: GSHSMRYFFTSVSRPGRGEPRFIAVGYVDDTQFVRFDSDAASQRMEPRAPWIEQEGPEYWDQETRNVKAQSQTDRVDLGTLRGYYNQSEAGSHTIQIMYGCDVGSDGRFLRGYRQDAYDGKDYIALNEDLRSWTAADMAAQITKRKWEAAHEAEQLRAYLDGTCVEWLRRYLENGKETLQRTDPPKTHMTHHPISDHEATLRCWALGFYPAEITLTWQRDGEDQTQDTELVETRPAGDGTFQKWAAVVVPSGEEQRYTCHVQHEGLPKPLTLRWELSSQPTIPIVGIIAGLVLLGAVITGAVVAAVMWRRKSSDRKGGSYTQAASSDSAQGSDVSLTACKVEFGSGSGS
notes: also called HLA-A alone; not shown: triple-FLAG tag

Chain of GST-Epx3 (P08515 1-218, tags or fused parts left off): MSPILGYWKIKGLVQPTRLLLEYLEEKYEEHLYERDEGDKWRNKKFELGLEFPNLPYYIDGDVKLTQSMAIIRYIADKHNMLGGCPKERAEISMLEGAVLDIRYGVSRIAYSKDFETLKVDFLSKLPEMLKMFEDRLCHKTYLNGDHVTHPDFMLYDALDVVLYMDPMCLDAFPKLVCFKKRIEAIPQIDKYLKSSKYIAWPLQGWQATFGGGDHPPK

In the first experiment the target is GST-Epx2 (E. faecium, UniProt P08515 1-218 = GST). Nature of the experiment: GST pull-down from lysates of transfected HEK293 cells, anti-FLAG immunoblot. For orientation: In western blotting, separated proteins are transferred to a membrane and probed.
Chain of GST-Epx2 (P08515 1-218, tags or fused parts left off): as above
For B1, the binding result is “no binding”.
On to B2, for which the binding result is listed as “no binding”.
On the same count and under the same terms, the same measure for B3: “no binding”.

A further experiment has as its target GST-Epx3 (E. faecalis, UniProt P08515 1-218 = GST). The experiment is described as above.
For the molecule B1, the binding result is given as “no binding”.
For the molecule B2, the binding result was “no binding”.
For B3, the binding result is “no binding”.
